Results from patent CN116041520A (WUHAN ABCLONAL CO LTD, dated 2023).

Target: T1, 重组Human CD63蛋白(Ala103-Val203) (Human, UniProt P08962 103-203)
T1 construct: Fragment 103-203 of human CD63 expressed in 293F cells from vector pBR322 and purified with imidazole elution; also called 重组CD63蛋白; 重组Human CD63成熟蛋白
T1 sequence: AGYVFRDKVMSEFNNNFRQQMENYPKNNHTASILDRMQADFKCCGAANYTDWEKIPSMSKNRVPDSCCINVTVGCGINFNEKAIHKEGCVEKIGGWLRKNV
Experiment: sandwich ELISA, 3C5 coated as capture antibody at 2 ug/mL, Human CD63 0-10 ng/mL, OD450

- binding result: binds
B1: 针对Human CD63的兔单克隆抗体3C5 (antibody, V domains shown)
VH: QEQLVESGGGLVQPEGSLTLTCTASGFTFSTAWMSWVRQAPGKGLEWIGIINTGGTGKTYYASWAKGRFTCSKTSSTTVTLQMTSLTAADTATYFCARETADFNLWGQGTLVTVSS
VL: DVVMTQTPSSTSEPVGGTVTINCQASESVYNNDDLAWLQQKPGQPPKVLIYSASKLASGVPSRFSGSGSGTQFTLTISGVQCDDAASYYCVGLFDGDYFAFGGGTEVVVKG
notes: Coated on the plate as capture antibody at 2 ug/mL; also called 捕获抗体
